Values of other authors as cited in paper PMC4440831 (Chembiochem : a European journal of chemical biology, 2015).

Molecular target: CXCR4 receptor (Homo sapiens, UniProt P61073)
Settings: earlier work of the same group

Sequence of CXCR4 receptor (P61073 whole entry): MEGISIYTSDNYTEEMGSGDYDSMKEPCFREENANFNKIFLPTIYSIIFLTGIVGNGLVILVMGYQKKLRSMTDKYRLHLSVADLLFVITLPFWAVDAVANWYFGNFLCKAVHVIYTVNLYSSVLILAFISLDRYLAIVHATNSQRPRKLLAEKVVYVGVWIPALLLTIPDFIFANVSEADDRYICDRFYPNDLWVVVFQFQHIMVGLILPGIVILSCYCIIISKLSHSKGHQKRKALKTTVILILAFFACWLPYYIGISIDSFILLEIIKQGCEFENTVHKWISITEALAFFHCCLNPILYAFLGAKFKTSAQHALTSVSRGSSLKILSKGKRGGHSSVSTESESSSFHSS

In the case of “MCoTI-I: empty scaffold cyclotide (SGSDGGVCPKILQRCRRDSDCPGACICRGNGYCG; not fully specified; Trypsin inhibitor 1; UniProt P82408 1-34, looked up)”, the “CXCR4 inhibitory activity, result in words” value is given as “no inhibitory activity”.
